Key:
[1] = biological target: T1, Pnao (pseudooxynicotine amine oxidase) (Pseudomonas putida, UniProt F8G0P1); assay: HPLC and UV-Vis of cofactor released by boiling purified protein; assay type: binding; settings: co-purified cofactor, non-covalent (released by boiling)
T1 construct: full-length, His6-tagged (pET28a NcoI-XhoI, tag kept), expressed in E. coli C43(DE3), about 54 kDa; FAD-containing

[2] = tested on: CNCCCC(=O)c1cccnc1; assay: purified protein; assay type: biochemical, Pseudomonas putida; settings: 30 °C, 25 mM sodium phosphate pH 8.5, O2 as oxidant

T1 sequence (F8G0P1 whole entry): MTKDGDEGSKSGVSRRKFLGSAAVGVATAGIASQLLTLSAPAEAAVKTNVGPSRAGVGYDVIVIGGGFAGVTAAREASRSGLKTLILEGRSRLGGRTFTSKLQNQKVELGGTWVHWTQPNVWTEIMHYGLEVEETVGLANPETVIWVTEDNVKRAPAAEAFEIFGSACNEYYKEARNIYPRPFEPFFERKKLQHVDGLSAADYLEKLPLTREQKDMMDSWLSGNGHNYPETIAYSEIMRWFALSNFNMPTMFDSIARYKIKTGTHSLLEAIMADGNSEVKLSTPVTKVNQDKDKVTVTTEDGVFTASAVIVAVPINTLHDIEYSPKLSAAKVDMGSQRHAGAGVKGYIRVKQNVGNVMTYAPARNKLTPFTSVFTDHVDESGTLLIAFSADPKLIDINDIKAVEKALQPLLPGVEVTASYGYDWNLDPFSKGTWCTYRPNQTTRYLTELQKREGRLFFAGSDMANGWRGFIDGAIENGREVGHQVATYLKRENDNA

Compound	HPLC and UV-Vis of cofactor released by boiling purified protein [1]	Km [2] [µM]	kcat [2] [s⁻¹]
Cc1cc2nc3c(=O)[nH]c(=O)nc-3n(C[C@H](O)[C@H](O)[C@H](O)COP(=O)(O)OP(=O)(O)OC[C@H]3O[C@@H](n4cnc5c(N)ncnc54)[C@H](O)[C@@H]3O)c2cc1C [FAD, Flavin adenine dinucleotide]	These results indicated that FAD was the cofactor associated with Pnao		
Pnao (pseudooxynicotine amine oxidase) (Pseudomonas putida S16)		73 ± 18	0.790 ± 0.074
